Reference: patent EP2100620A1

Assays:
[1] = target: HLA receptor A1 (HLA-A*0101), purified from transfected human cells (human); assay: competitive binding assay: unlabeled test peptide against 5 nM 125I-labeled standard peptide on purified HLA with 1 uM b2m, size exclusion HPLC, 51 h incubation; conditions: remark: other sources report otherwise
[2] = target: HLA receptor A11 (HLA-A*1101), purified from transfected human cells (human); assay: competitive binding assay: unlabeled test peptide against 5 nM 125I-labeled standard peptide on purified HLA with 1 uM b2m, size exclusion HPLC, 68 h incubation

Binder	IC50 [1] [nM]	IC50 [2] [nM]
ISEYRHYCY (modifications not checked) [… (SEQ ID NO:70), HPV 16 E6 peptide]	49	
HTMLCMCCK (modifications not checked) [… (SEQ ID NO:122), HPV strain 18 E7 59-67]		67
